Measured values: paper PMC11255334, “Acetyl-CoA synthetase activity is enzymatically regulated by lysine acetylation using acetyl-CoA or acetyl-phosphate as donor molecule” (Nature Communications, 2024)
Positions count from the first letter of the chain named.

Experiments:
[1] = target: T1, AcsA from Chloroflexota bacterium (Chloroflexota bacterium, UniProt Z9YKO5Y7U4); test: X-ray crystallography; format: binding; settings: product of the first half-reaction; thioester-forming conformation
T1 construct: monomer in solution and crystal; expression and tag not described; His476 found phosphorylated
T1 sequence (Z9YKO5Y7U4 9-657): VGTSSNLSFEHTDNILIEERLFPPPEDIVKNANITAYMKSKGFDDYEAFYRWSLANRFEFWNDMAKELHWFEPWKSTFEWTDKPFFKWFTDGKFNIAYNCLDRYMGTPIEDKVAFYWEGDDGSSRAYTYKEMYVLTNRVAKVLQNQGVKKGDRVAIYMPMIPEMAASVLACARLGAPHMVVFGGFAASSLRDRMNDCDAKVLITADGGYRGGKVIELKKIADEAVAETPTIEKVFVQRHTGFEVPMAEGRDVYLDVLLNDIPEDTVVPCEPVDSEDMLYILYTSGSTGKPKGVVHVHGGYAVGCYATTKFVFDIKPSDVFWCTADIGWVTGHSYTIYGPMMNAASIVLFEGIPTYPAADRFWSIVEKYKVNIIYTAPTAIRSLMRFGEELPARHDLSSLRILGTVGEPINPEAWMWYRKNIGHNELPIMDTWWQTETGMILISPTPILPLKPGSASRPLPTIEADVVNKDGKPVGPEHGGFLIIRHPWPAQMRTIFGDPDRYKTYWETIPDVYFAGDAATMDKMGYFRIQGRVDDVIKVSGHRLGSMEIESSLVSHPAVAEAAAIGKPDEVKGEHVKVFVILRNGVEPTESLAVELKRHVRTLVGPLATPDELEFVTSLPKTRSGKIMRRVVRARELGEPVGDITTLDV

[2] = target: Bacillus subtilis AMP-forming acetyl-CoA synthetase AcsA (Bacillus subtilis) (UniProt P39062); test: SEC; analytical SEC of equimolar AcsA and AcuA (wild type or mutants), incubated 30 min at room temperature, Superdex 200 10/300 GL, 50 mM Tris/HCl pH 8, 50 mM KCl, 2 mM β-mercaptoethanol; 100 µl of 50–100 µM; without ligand or with a tenfold molar excess of CoA or AcP alone
[3] = target: T2, AcsA V477A (Bacillus subtilis, UniProt P39062 1-572, V477A); test: as above; settings: both partners purified
T2 construct: AcsA, Bacillus subtilis, UniProt P39062, with V477A
T2 sequence (looked up): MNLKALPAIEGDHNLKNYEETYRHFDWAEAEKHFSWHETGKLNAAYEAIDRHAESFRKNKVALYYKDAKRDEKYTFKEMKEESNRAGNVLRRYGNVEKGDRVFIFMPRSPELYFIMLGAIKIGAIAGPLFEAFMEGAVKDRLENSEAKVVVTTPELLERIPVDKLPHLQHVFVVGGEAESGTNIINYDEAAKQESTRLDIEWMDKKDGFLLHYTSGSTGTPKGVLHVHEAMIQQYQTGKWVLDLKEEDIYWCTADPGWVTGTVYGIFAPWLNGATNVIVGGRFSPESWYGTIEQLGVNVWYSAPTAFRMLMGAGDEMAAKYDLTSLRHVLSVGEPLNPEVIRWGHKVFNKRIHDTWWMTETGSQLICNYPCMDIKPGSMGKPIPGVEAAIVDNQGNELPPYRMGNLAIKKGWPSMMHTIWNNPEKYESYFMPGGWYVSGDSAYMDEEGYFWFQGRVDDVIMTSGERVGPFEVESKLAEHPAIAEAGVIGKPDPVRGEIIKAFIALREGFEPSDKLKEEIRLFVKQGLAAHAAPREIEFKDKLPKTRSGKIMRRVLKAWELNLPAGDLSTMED

[4] = target: T3, AcsA K549Q (Bacillus subtilis, UniProt P39062 1-572, K549Q); test: as above; settings: both partners purified
T3 construct: AcsA, Bacillus subtilis, UniProt P39062, with K549Q; also called acetylation-mimetic mutant AcsA K549Q
T3 sequence (looked up): T2 sequence (looked up) with A477V, K549Q

[5] = target: T4, AcsA K549R (Bacillus subtilis, UniProt P39062 1-572, K549R); test: as above; settings: both partners purified
T4 construct: AcsA, Bacillus subtilis, UniProt P39062, with K549R; also called non-acetylated mutant AcsA K549R
T4 sequence (looked up): T2 sequence (looked up) with A477V, K549R

[6] = target: T5, AcsA E473A (Bacillus subtilis, UniProt P39062 1-572, E473A); test: as above; settings: both partners purified
T5 construct: AcsA, Bacillus subtilis, UniProt P39062, with E473A
T5 sequence (looked up): T2 sequence (looked up) with E473A, A477V

With `CC(=O)OP(=O)(O)OC[C@H]1O[C@@H](n2cnc3c(N)ncnc32)[C@H](O)[C@@H]1O` [acetyl-AMP] the X-ray crystallography [1] was “structure solved in complex with acetyl-AMP, i.e. the product of the first half-reaction”.

B1: Bacillus subtilis acetyltransferase AcuA (enzyme, UniProt P39065 1-210, looked up)
chain: MEHHKTYHSANIKTATGSLLIEGPVSPEDLAGYEFHKDLTAFRPPREQHEALVDIAGLPEGRIIIARDGRTIVGYVTYLYPDPLERWSEGNMEDLIELGAIEVAPDYRGCAVGKTLLTVSMMDEQMENYIVMTTEYYWHWDLKGMKKDVWEYRKIMEKMMNAGGLVWFATDEPEISSHPANCLMARIGKNVSQESIEQFDRLRFYHRYMY
notes: GNAT-related lysine acetyltransferase AcuA, Bacillus subtilis, UniProt P39065; synthetic gene codon optimized for E. coli; also called AcuA wildtype; AcuA WT; source: E. coli BL21 (DE3), pET45b(+), purified (HisTrap FF, Ni2+)
With B1 the stoichiometry N (AcuA per AcsA (2:2)) [2] was 1, the binding result [3] was “binds” and the binding result [4] was “binds”. B1: binds [5]; binds [6].
